Data: patent US7202089B2, “Early diagnosis of stroke” (priority 2001, dated 2007)

Test: Fatty acid binding of fluorescently labeled I-FABP probes (fluorescence ratio)
Settings: FFA binding; ADIFAB2 compared with ADIFAB
Experimental: In a preferred embodiment, a fluorescently-labeled FABP is acrylodan-derived recombinant rat intestinal fatty acid binding protein (referred to as ADIFAB). Derivatization with acrylodan was performed using known methods substantially as previously described (U.S. Pat. No. 5,470,714 & Richieri, G. V, et al., J. Biol. Chem., (1992) […]: 23495–23501), and ADIFAB is commercially available (FFA Sciences LLC, San Diego, Calif. ). Concentrations of FFAu can be determined by the binding of the FFAu to the fluorescently labeled fatty acid binding protein (FABP). […] The concentration of FFAu can be determined from the fluorescence difference. […] It will be understood that those skilled in the art can readily substitute other fluorescently-labeled FABP in the disclosed assay.
The assay for determination of FFAu levels in aqueous samples measures the intensity of a shift in fluorescence from a first wavelength, at which the derivatized FABP fluoresces when no FFA is bound, to a second wavelength, at which the derivatized FABP fluoresces when a molecule of FFA is bound, and the concentration of FFAu is then determined from the ratio (“R” value) of the two intensities of fluorescence wavelengths as described in U.S. Pat. No. 5,470,714 and Richieri, et al. (1995) J. Lipid Research, vol. […] Briefly, the ratio is calculated using the following formula: […]

binding affinities relative to ADIFAB: about 10 fold
B1: ADIFAB2: acrylodan-derivatized rat intestinal fatty acid binding protein (I-FABP) with substitution of Ala for Leu at position 72 (protein, UniProt P02693 2-132, looked up, variant L72A)
Fatty acid-binding protein, …: AFDGTWKVDRNENYEKFMEKMGINVVKRKLGAHDNLKLTITQEGNKFTVKESSNFRNIDVVFELGVDFAYSAADGTELTGTWTMEGNKLVGKFKRVDNGKELIAVREISGNELIQTYTYEGVEAKRIFKKE
modifications: acrylodan label
